PMC10786891, “Massively parallel profiling of RNA-targeting CRISPR-Cas13d”
Changes are numbered by the printed parent chain. In names and notes the source's numbering stands.

T1: EsCas13d, nuclease-dead (Eubacterium siraeum, UniProt B0MS50, R295A;H300A;R849A;H854A)
T1 sequence: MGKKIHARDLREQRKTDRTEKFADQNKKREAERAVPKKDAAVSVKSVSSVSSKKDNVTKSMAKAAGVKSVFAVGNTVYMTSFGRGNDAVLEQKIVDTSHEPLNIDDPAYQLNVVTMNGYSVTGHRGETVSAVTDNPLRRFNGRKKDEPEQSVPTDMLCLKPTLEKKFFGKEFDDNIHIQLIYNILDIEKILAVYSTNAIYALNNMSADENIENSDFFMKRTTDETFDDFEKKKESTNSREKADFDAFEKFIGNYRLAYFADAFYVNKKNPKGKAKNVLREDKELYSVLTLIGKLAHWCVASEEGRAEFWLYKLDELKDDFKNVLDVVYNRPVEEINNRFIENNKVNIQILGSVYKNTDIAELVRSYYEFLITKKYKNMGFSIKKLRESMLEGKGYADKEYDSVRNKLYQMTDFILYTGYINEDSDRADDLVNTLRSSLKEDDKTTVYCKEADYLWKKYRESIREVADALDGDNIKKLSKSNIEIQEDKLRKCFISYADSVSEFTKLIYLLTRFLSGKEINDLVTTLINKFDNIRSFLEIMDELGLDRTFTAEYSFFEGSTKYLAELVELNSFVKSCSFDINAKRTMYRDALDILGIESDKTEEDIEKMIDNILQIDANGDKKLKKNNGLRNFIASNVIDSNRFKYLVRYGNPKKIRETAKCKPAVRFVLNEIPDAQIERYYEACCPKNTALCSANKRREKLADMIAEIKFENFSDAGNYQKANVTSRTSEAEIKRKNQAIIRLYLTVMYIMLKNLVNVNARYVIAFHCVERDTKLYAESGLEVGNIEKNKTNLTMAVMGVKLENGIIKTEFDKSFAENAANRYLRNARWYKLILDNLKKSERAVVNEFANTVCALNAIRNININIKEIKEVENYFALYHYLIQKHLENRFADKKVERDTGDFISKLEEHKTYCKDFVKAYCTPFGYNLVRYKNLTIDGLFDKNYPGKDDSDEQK

B1: target 1 insG 3' of 3,insU 3' of 1 (mixed)
RNA 1: CACCCGUGCAAAAAUGCAGGGGUCUAAAACUGAGCGGAUAACCUCUCUAUGG
RNA 2: GGGAAUGGAUCCACAUCUACGAAUUCGUACCAUAGAGAGGUUAUCCGCUGCAUCCGAGAUCGGAAGAGCACACGU
B2: target 1 C6G,G12U (mixed)
RNA 1: B1 RNA 1
RNA 2: GGGAAUGGAUCCACAUCUACGAAUUCGUACCAUAGAGAGUUUAUCGGCUCACCGAGAUCGGAAGAGCACACGU
B3: target 1 insA 3' of 7,insU 3' of 6 (mixed)
RNA 1: B1 RNA 1
RNA 2: B1 RNA 2 with C46A, G47C, C48U, U49G, G50C, C51U, A52C, U53A
B4: target 1 C7U,A14G (mixed)
RNA 1: B1 RNA 1
RNA 2: B2 RNA 2 with A38G, U40G, C45U, G46C
B5: target 1 del7,del8 (mixed)
RNA 1: B1 RNA 1
RNA 2: GGGAAUGGAUCCACAUCUACGAAUUCGUACCAUAGAGAGGUUACGCUCACCGAGAUCGGAAGAGCACACGU
B6: target 1 G12U,A16G (mixed)
RNA 1: B1 RNA 1
RNA 2: B2 RNA 2 with A36G, G46C
B7: target 1 insU 3' of 18,insA 3' of 8 (mixed)
RNA 1: B1 RNA 1
RNA 2: GGGAAUGGAUCCACAUCUACGAAUUCGUACCAUAUGAGAGGUUAUACCGCUCACCGAGAUCGGAAGAGCACACGU
B8: target 1 insC 3' of 20,insA 3' of 3 (mixed)
RNA 1: B1 RNA 1
RNA 2: B7 RNA 2 with U33C, A34U, U35A, A46C, C48G, G49C, C50U, U51A
B9: target 1 C4A,C6G (mixed)
RNA 1: B1 RNA 1
RNA 2: B2 RNA 2 with U40G, C48A
B10: target 1 G5C,G17C (mixed)
RNA 1: B1 RNA 1
RNA 2: B2 RNA 2 with G35C, U40G, G46C, G47C
B11: target 1 G5C,U10A (mixed)
RNA 1: B1 RNA 1
RNA 2: B2 RNA 2 with U40G, U42A, G46C, G47C
B12: target 1 insU 3' of 12,insC 3' of 11 (mixed)
RNA 1: B1 RNA 1
RNA 2: B1 RNA 2 with A43C, C45A, C46U, G47C, U49G, G50C, C51U, A52C, U53A
B13: target 1 insA 3' of 15,insU 3' of 9 (mixed)
RNA 1: B1 RNA 1
RNA 2: B7 RNA 2 with U35G, G36A, A37G, G38A, A46U
B14: target 1 G15A,C22U (mixed)
RNA 1: B1 RNA 1
RNA 2: B2 RNA 2 with C30U, G37A, U40G, G46C
B15: target 1 insU 3' of 13,insU 3' of 12 (mixed)
RNA 1: B1 RNA 1
RNA 2: B7 RNA 2 with U35G, G36A, A37G, G38A, A39G, G40U, A44U, U45A, A46U
B16: target 1 insG 3' of 8,insG 3' of 6 (mixed)
RNA 1: B1 RNA 1
RNA 2: B1 RNA 2 with C45G, G47C, C48G, U49G, G50C, C51U, A52C, U53A
B17: target 1 del3,del9 (mixed)
RNA 1: B1 RNA 1
RNA 2: B5 RNA 2 with A43U, G45C, C46G, U47C
B18: target 1 insU 3' of 22,insG 3' of 18 (mixed)
RNA 1: B1 RNA 1
RNA 2: GGGAAUGGAUCCACAUCUACGAAUUCGUACUCAUAGGAGAGGUUAUCCGCUCACCGAGAUCGGAAGAGCACACGU
B19: target 1 insU 3' of 9,insG 3' of 3 (mixed)
RNA 1: B1 RNA 1
RNA 2: B1 RNA 2 with C45U, G47C, C48G, U49C, G50U, C51G, A52C, U53A
B20: target 1 insU 3' of 20,insC 3' of 14 (mixed)
RNA 1: B1 RNA 1
RNA 2: B7 RNA 2 with A34U, U35A, G40C, U42G, A44U, U45A, A46U
B21: target 1 C6U,A9U (mixed)
RNA 1: B1 RNA 1
RNA 2: B2 RNA 2 with U40G, A43U, G46U
B22: target 1 insC 3' of 18,insU 3' of 15 (mixed)
RNA 1: B1 RNA 1
RNA 2: B7 RNA 2 with U35C, A39U, G40A, U42G, A44U, U45A, A46U
B23: target 1 C2G,C4G (mixed)
RNA 1: B1 RNA 1
RNA 2: B2 RNA 2 with U40G, G46C, C48G, C50G
B24: target 1 insA 3' of 21,insC 3' of 10 (mixed)
RNA 1: B1 RNA 1
RNA 2: B7 RNA 2 with U33A, A34U, U35A, A44C, U45A, A46U
B25: target 1 C4U,G12A (mixed)
RNA 1: B1 RNA 1
RNA 2: B2 RNA 2 with U40A, G46C, C48U
B26: target 1 insA 3' of 17,insC 3' of 10 (mixed)
RNA 1: B1 RNA 1
RNA 2: B7 RNA 2 with U35G, G36A, A44C, U45A, A46U
B27: target 1 U8G,U10A (mixed)
RNA 1: B1 RNA 1
RNA 2: B2 RNA 2 with U40G, U42A, U44G, G46C
B28: target 1 G5U,A9C (mixed)
RNA 1: B1 RNA 1
RNA 2: B2 RNA 2 with U40G, A43C, G46C, G47U

molecular target: T1, EsCas13d, nuclease-dead; experiment: crRNA (strand 1, pre-loaded); Mg2+; 40 mM Tris-HCl pH 7.5, 150 mM NaCl, 6 mM MgCl2, 1 mM DTT, 0.1% Tween-20, 0.2 mg/ml BSA; 25 C; 10 min per concentration, then washed; conditions: tags: His6-TwinStrep-SUMO cleaved; N-terminal SNAP kept (SNAP-Surface 488); label: 3' end held by stalled T7 RNA polymerase

Row | Binder | Kd [nM]
1 | B1 | 9.04 ± 0.35
2 | B2 | 13.7 ± 1.2
3 | B3 | 7.6 ± 0.5
4 | B4 | 16.5 ± 1.6
5 | B5 | 10.6 ± 0.7
6 | B6 | 43 ± 5
7 | B7 | 55 ± 4
8 | B8 | 8.76 ± 0.32
9 | B9 | 5.4 ± 0.4
10 | B10 | 48 ± 6
11 | B11 | 11.8 ± 0.6
12 | B12 | 25 ± 4
13 | B13 | 24.4 ± 3.1
14 | B14 | 17.7 ± 2.4
15 | B15 | 11.8 ± 1.3
16 | B16 | 7.05 ± 0.26
17 | B17 | 40 ± 5
18 | B18 | 84 ± 17
19 | B19 | 12.7 ± 0.6
20 | B20 | 51 ± 16
21 | B21 | 8.2 ± 0.4
22 | B22 | 82 ± 33
23 | B23 | 7 ± 0.4
24 | B24 | 57 ± 8
25 | B25 | 23.7 ± 3
26 | B26 | 27 ± 6
27 | B27 | 19.7 ± 1.2
28 | B28 | 60 ± 6
